According to the supplement of paper PMC10598134:
± gives the standard deviation.

Experiment: collision cross section of modified peptide (TIMS, N2, iRT-aligned); higher = larger / more extended gas-phase ion
How it was run: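 Synthetic peptide pools (~100 fmol/µL in 2% acetonitrile/0.1% formic acid, iRT standard spiked 1:40) were separated on a 120-min nanoflow C18 gradient at 60 °C. They were analysed on a timsTOF Pro/HT (dda-PASEF, nitrogen, ~2.4 mbar) and identified with MaxQuant. 1/K0 was calibrated with three reference ions and aligned run-wise to the median iRT peptide deviation. Collision cross section came from the Mason-Schamp equation, averaging 1–3 technical replicates of the most abundant feature per charge state.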

[1] = charge state: 2, modification: HexNAc (ST)
[2] = charge state: 3, modification: HexNAc (ST)
[3] = charge state: 2, modification: Nitro (Y)
[4] = charge state: 2, modification: Phospho (Y)
[5] = charge state: 2, modification: Acetyl (K)
[6] = charge state: 2, modification: Butyryl
[7] = charge state: 2, modification: Crotonyl
[8] = charge state: 2, modification: Dimethyl (K)
[9] = charge state: 3, modification: Dimethyl (K)
[10] = charge state: 2, modification: Formyl
[11] = charge state: 2, modification: Glutarylation
[12] = charge state: 2, modification: GlyGly (K)
[13] = charge state: 3, modification: GlyGly (K)
[14] = charge state: 2, modification: Malonyl
[15] = charge state: 2, modification: Methyl (K)
[16] = charge state: 3, modification: Methyl (K)

LSEHATAPTR [_LSEHATAPT(HexNAc (ST))R_]
collision cross section [1]: 370.75 ± 0.68 Å²
collision cross section [2]: 450.64 ± 0.17 Å²

LSESHPDATEDLQR [_LS(HexNAc (ST))ESHPDATEDLQR_]
collision cross section [2]: 486.6 ± 0.17 Å²

LSFGLEDEPLETATK [_LSFGLEDEPLET(HexNAc (ST))ATK_]
collision cross section [1]: 457.66 ± 0.56 Å²
collision cross section [2]: 480.97 Å²

LSITGTYDLK [_LSITGTY(Nitro (Y))DLK_]
collision cross section [3]: 368.48 ± 0.22 Å²

LSITGTYDLK [_LSITGTY(Phospho (Y))DLK_]
collision cross section [4]: 381.43 ± 0.65 Å²

LSQEDPDYGIR [_LS(HexNAc (ST))QEDPDYGIR_]
collision cross section [1]: 396.72 ± 0.76 Å²

LSSETYSQAK [_LSSETY(Nitro (Y))SQAK_]
collision cross section [3]: 352.74 ± 0.47 Å²

LSSETYSQAK [_LSSETY(Phospho (Y))SQAK_]
collision cross section [4]: 357.2 ± 0.065 Å²

LSTPPPLAEEEGLASR [_LS(HexNAc (ST))TPPPLAEEEGLASR_]
collision cross section [1]: 448.88 Å²
collision cross section [2]: 503.24 Å²

LTEKELAEAASK [_LTEK(Acetyl (K))ELAEAASK_]
collision cross section [5]: 387.12 ± 0.45 Å²

LTEKELAEAASK [_LTEK(Biotin)ELAEAASK_]
collision cross section (charge state: 2, modification: Biotin): 418.47 ± 3 Å²

LTEKELAEAASK [_LTEK(Butyryl)ELAEAASK_]
collision cross section [6]: 394.05 ± 1.5 Å²
collision cross section (charge state: 3, modification: Butyryl): 455.88 Å²

LTEKELAEAASK [_LTEK(Crotonyl)ELAEAASK_]
collision cross section [7]: 394.89 ± 2.4 Å²

LTEKELAEAASK [_LTEK(Dimethyl (K))ELAEAASK_]
collision cross section [8]: 397.3 ± 0.55 Å²
collision cross section [9]: 456.37 ± 5.1 Å²

LTEKELAEAASK [_LTEK(Formyl)ELAEAASK_]
collision cross section [10]: 382.92 ± 0.9 Å²

LTEKELAEAASK [_LTEK(Gluratylation)ELAEAASK_]
collision cross section [11]: 395.13 ± 2.6 Å²
collision cross section (charge state: 3, modification: Glutarylation): 453.47 ± 1.2 Å²

LTEKELAEAASK [_LTEK(GlyGly (K))ELAEAASK_]
collision cross section [12]: 404.34 ± 0.36 Å²
collision cross section [13]: 453.97 ± 1.1 Å²

LTEKELAEAASK [_LTEK(Malonyl)ELAEAASK_]
collision cross section [14]: 390.08 ± 1.1 Å²
collision cross section (charge state: 3, modification: Malonyl): 448.74 ± 2.2 Å²

LTEKELAEAASK [_LTEK(Methyl (K))ELAEAASK_]
collision cross section [15]: 392.99 ± 1 Å²
collision cross section [16]: 445.12 ± 4.9 Å²

LTEKELAEAASK [_LTEK(Propionyl)ELAEAASK_]
collision cross section (charge state: 2, modification: Propionyl): 389.08 ± 0.49 Å²

LTEKELAEAASK [_LTEK(Succinyl)ELAEAASK_]
collision cross section (charge state: 2, modification: Succinyl): 389.23 ± 1.1 Å²
collision cross section (charge state: 3, modification: Succinyl): 454.1 Å²

LTEKELAEAASK [_LTEK(Trimethyl (K))ELAEAASK_]
collision cross section (charge state: 2, modification: Trimethyl (K)): 406.14 ± 0.61 Å²
collision cross section (charge state: 3, modification: Trimethyl (K)): 451.11 ± 2.4 Å²

LTEKELAEAASK [_LTEK(hydroxyisobutyryl)ELAEAASK_]
collision cross section (charge state: 2, modification: hydroxyisobutyryl): 392.48 ± 2 Å²
collision cross section (charge state: 3, modification: hydroxyisobutyryl): 455.87 ± 2.2 Å²

LTSLNVKYNNDK [_LTSLNVK(Acetyl (K))YNNDK_]
collision cross section [5]: 407.77 ± 1 Å²

LTSLNVKYNNDK [_LTSLNVK(Butyryl)YNNDK_]
collision cross section [6]: 414.27 ± 0.78 Å²

LTSLNVKYNNDK [_LTSLNVK(Crotonyl)YNNDK_]
collision cross section [7]: 414.39 ± 1.1 Å²

LTSLNVKYNNDK [_LTSLNVK(Dimethyl (K))YNNDK_]
collision cross section [8]: 409.23 ± 0.76 Å²
collision cross section [9]: 464.81 ± 1.6 Å²

LTSLNVKYNNDK [_LTSLNVK(Formyl)YNNDK_]
collision cross section [10]: 404.27 ± 0.2 Å²

LTSLNVKYNNDK [_LTSLNVK(Gluratylation)YNNDK_]
collision cross section [11]: 413.21 ± 1.1 Å²

LTSLNVKYNNDK [_LTSLNVK(GlyGly (K))YNNDK_]
collision cross section [12]: 424.54 ± 1.4 Å²
collision cross section [13]: 491.6 ± 1.1 Å²

LTSLNVKYNNDK [_LTSLNVK(Malonyl)YNNDK_]
collision cross section [14]: 402.04 ± 0.61 Å²

LTSLNVKYNNDK [_LTSLNVK(Methyl (K))YNNDK_]
collision cross section [15]: 408.99 ± 1.4 Å²
collision cross section [16]: 486.12 ± 3.3 Å²
